Experimental data: paper doi:10.1101/2021.12.28.474321 (bioRxiv, 2021)

B1: recombinant fructose-1,6-bisphosphate aldolase 3 from Chlamydomonas reinhardtii (CrFBA3) (enzyme, UniProt Q42690 28-377, looked up)
chain: GKYDEELIKTAGTVASKGRGILAMDESNATCGKRLDSIGVENTEENRRAYRELLVTAPGLGQYISGAILFEETLYQSTASGKKFVDVMKEQNIVPGIKVDKGLVPLSNTNGESWCMGLDGLDKRCAEYYKAGARFAKWRSVVSIPHGPSIIAARDCAYGLARYAAIAQNAGLVPIVEPEVLLDGEHDIDRCLEVQEAIWAETFKYMADNKVMFEGILLKPAMVTPGADCKNKAGPAKVAEYTLKMLRRRVPPAVPGIMFLSGGQSELESTLNLNAMNQSPNPWHVSFSYARALQNTVLKTWQGKPENVQAAQAALLKRAKANSDAQQGKYDATTEGKEAAQGMYEKGYVY

Experiments:
[1] = target: FBA3 in soluble extracts of Chlamydomonas cultures (Chlamydomonas reinhardtii (endogenous in Chlamydomonas cultures)); test: SEC
SEC = target: the molecule itself; test: SEC

Molecule | stoichiometry N [1] | stoichiometry N (SEC)
FBA3 in soluble extracts of Chlamydomonas cultures (enzyme) | 4 | 
B1 |  | 4
